Measured values: patent US20250197503A1, “ANTI-HUMAN PD-Ll AND TLR7 DOUBLE-TARGETING NANOBODY CONJUGATE DRUG AND USE THEREOF IN RESISTING TUMOR” (SHANGHAI INSTITUTE OF MATERIA MEDICA , CHINESE ACADEMY OF …, priority 2022, published 2025)

What was measured:
PD-L1 [1] = biological target: T1, PD-L1 (Homo sapiens, UniProt Q9NZQ7); test: Binding of candidate nanobodies to human PD-L1 on HEK293T/hPD-L1 cells, flow cytometry; parameters: expressed in transfected cells; host or cells: HEK293T; conditions: nanobody 10 μg/ml, FIG. 1
Procedure: The stably transfected cell line HEK293T/hPD-L1 was digested and centrifuged, and the supernatant was removed. The cells were washed once with PBS and the cell density was adjusted to 2.5×10^6 cells/mL. 100 μL of cell suspension was added to each cell sample, i.e., 2.5×10^5 cells/sample. Different anti-human PD-L1 candidate nanobodies (at a concentration of 10 μg/ml) were added into the samples. The samples were incubated in a 4° C. refrigerator for 20 min and then centrifuged to remove the supernatant, and washed once with PBS. The diluted antibody anti-human IgG Fc (FITC) was used as a secondary antibody to resuspend the above cells. The abtained samples were incubated in a 4° C. refrigerator for 20 min and centrifuged to remove the supernatant. The cells were washed twice with PBS, transferred to a flow tube; and detected on a flow cytometer to obtain the binding activity of the candidate nanobody with human PD-L1, as shown in FIG. 1.

human PD-1/PD-L1 [2] = biological target: T2, human PD-1/PD-L1 (Homo sapiens, UniProt Q9NZQ7); test: Blocking of human PD-1/PD-L1 binding on HEK293T/hPD-L1 cells, single concentration, flow cytometry; conditions: nanobody 10 μg/ml, human PD-1-his 1 μg/mL, FIG. 2
T2 construct: expressed in transfected cells; host or cells: HEK293T
Procedure: The stably transfected cell line HEK293T/hPD-L1 was digested and centrifuged to remove the supernatant. The cells were washed once with PBS and the cell density was adjusted to 2.5×10^6 cells/mL. 100 μL of cell suspension was added to each cell sample, i.e., 2.5×10^5 cells/sample. The human PD-1-his protein (at a concentration of 1 μg/mL) and candidate anti-human PD-L1 nanobodies (at a concentration of 10 μg/ml) were added to the samples respectively. The abtained samples were incubated in a refrigerator at 4° C. for 20 min and centrifuged to remove the supernatant. The obtained samples were washed once with PBS. The diluted antibody anti-his-APC was used as the secondary antibody to resuspend the above cells. The cells were incubated in a refrigerator at 4° C. for 20 min and centrifuged to remove the supernatant. The cells were washed twice with PBS, transferred to a flow tube; and detected by flow cytometry.

CT26/hPD-L1 tumor = test: In vivo anti-tumor activity in CT26/hPD-L1 tumor model; parameters: species or system BALB/c mice with dual humanization of PD-1/PD-L1; conditions: 10 mg/kg intraperitoneal, 6 administrations D0-D16, tumors dissected on Day 17
Procedure: To further evaluate the in vivo anti-tumor activity of anti-human PD-L1 and TLR7 dual-targeting nanobody conjugates, the CT26/hPD-L1 tumor model established by using BALB/c mice with dual humanization of PD-1/PD-L1 targets was used. When the average tumor volume reached 80-100 mm^3, the mice were randomly divided into 6 groups according to the tumor volume, with 6 mice in each group; the day of grouping was defined as DO, and the drugs were administered on DO, D3, D7, D10, D13, and D16, for a total of 6 times, with a dose of 10 mg/kg by intraperitoneal administration. The tumor size was measured 2-3 times a week, and the tumor growth curve was plotted.

human PD-1/PD-L1 [3] = biological target: T2, human PD-1/PD-L1; test: IC50 of blocking human PD-1/PD-L1 binding on HEK293T/hPD-L1 cells, flow cytometry; conditions: FIG. 3; for IC50 activity in blocking human PD-1/PD-L1 binding, compared with KN035: human PD-1-his 1 μg/mL
Procedure: The cell samples were prepared by digesting the stably transfected cell line HEK293T/hPD-L1. Different concentrations of nanobodies h_Nb1 or h_Nb2 or positive control antibody KN035 (sequence from the IMGT database) and human PD-1-his protein (concentration of 1 μg/mL) were added to the samples. After incubation and centrifugation, anti-his-APC was used as the secondary antibody for incubation and staining; and then the flow cytometer was used for detection to obtain the IC50 value of the candidate nanobody in blocking the binding of human PD-1/PD-L1, as shown in FIG. 3.

PD-L1 [4] = biological target: T1, PD-L1; test: Affinity of affinity-matured nanobodies to PD-L1 compared with the original antibodies; type: binding; conditions: relative to original antibody (h_Nb1 VHH or h_Nb2 VHH)
Excerpt: The full-length amino acid sequences of preferred nanobodies that specifically bind to human PD-L1 in the above examples (SEQ ID No. 1 and SEQ ID No. 5) were annotated with the CCG method for the antibody CDR and FR regions. Suitable FR and CDR region templates were selected by antibody homology modeling to construct and select the optimal nanobody three-dimensional protein structure. The crystal structure of human PD-L1 protein was obtained from the PDB protein database. A preferred candidate library of PD-L1 nanobody-PD-L1 protein complex structures was obtained by protein complex homology modeling and protein-protein molecular docking methods. Based on the PD-1/PD-L1 in vitro competitive binding characteristics of the preferred antibodies, a suitable docking angle was selected to determine the optimal docking conformation. The key interaction sites of the selected nanobody-PD-L1 protein complex structure were analyzed, with attention paid to Van Der Waals forces, hydrogen bonds, ionic bonds, hydrophobic interactions, etc. The pairs of action sites with low affinity energy values between the nanobodies and the action sites on PD-L1 were focused on as affinity maturation point mutation objects. […] Finally, the affinity maturation scheme of the CDR regions of the preferred antibodies was determined, and the sequences of the antibodies after affinity maturation were SEQ ID NO. […]

T2 sequence (Q9NZQ7 19-290): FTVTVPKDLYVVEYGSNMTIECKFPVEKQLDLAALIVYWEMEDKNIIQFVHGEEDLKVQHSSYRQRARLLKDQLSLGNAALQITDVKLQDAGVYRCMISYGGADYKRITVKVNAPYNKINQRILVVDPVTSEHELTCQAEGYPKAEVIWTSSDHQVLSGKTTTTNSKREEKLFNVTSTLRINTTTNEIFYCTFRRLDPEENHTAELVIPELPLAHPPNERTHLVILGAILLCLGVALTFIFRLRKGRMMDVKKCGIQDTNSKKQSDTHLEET
T1 sequence (Q9NZQ7 19-290): as above

Molecule	binding activity to human PD-L1 (PD-L1 [1])	other results
h_Nb1: anti-human PD-L1 nanobody, VHH SEQ ID NO: 1 (protein, h_Nb1 VHH) VHH: DVQLQESGGGLVQPGGSLRLSCAASGFTFSSYAMSWVRQAPGKGLEWVSDINSGGDNTDYADSVKGRFTISRDNAKNTLYLQMNSLKPEDTAVYYCARGPKLCFSSWGQGTQVTVSS	good binding activity	activity in blocking human PD-1/PD-L1 binding (human PD-1/PD-L1 [2]): effectively block; tumor inhibition rate (CT26/hPD-L1 tumor): 81.17%; IC50 activity in blocking human PD-1/PD-L1 binding, compared with KN035 (human PD-1/PD-L1 [3]): comparable to those of the positive control antibody KN035
h_Nb4: anti-human PD-L1 nanobody, VHH SEQ ID NO: 9 (protein, h_Nb4 VHH) VHH: DVQLQESGGGLVQAGGSLRLSCAAPSRMFSGYTMGWYRQAPGKQRELVAQIANGGFTDYIDSVKGRFSISRDTVLNMMYLQMNSLKPEDTAVYYCNLVLVNGIPTRNWGQGTQVTVSS	good binding activity	
KN035: positive control antibody (sequence from the IMGT database) (antibody, chains of the INN, looked up, V domains shown) VH: QVQLVESGGGLVQPGGSLRLSCAASGKMSSRRCMAWFRQAPGKERERVAKLLTTSGSTYLADSVKGRFTISRDNSKNTVYLQMNSLRAEDTAVYYCAADSFEDPTCTLVTSSGAFQYWGQGTLVTVSS		tumor inhibition rate (CT26/hPD-L1 tumor): 65.83%
h_Nb2: anti-human PD-L1 nanobody, VHH SEQ ID NO: 5 (protein, h_Nb2 VHH) VHH: DVQLQESGGGLVQPGGSLRLSCAASGFTFGDRWMYWLRQAPGKGLEWVSSINPAGRSTYYADSVKGRFTISRDNAKNTLYLQMNSLKSEDTAVYYCTKDPGGYQKGQGTQVTVSS	good binding activity	activity in blocking human PD-1/PD-L1 binding (human PD-1/PD-L1 [2]): effectively block; tumor inhibition rate (CT26/hPD-L1 tumor): 85.14%; in vitro activity compared with KN035 (human PD-1/PD-L1 [3]; PD-1/PD-L1 blocking): superior to that of KNO35; IC50 activity in blocking human PD-1/PD-L1 binding, compared with KN035 (human PD-1/PD-L1 [3]): comparable to those of the positive control antibody KN035
h_Nb2_G101Y: affinity-matured VHH of h_Nb2, SEQ ID NO: 92 (protein, h_Nb2_G101Y VHH) VHH: DVQLQESGGGLVQPGGSLRLSCAASGFTFGDRWMYWLRQAPGKGLEWVSSINPAGRSTYYADSVKGRFTISRDNAKNTLYLQMNSLKSEDTAVYYCTKDPGYYQKGQGTQVTVSS		Improved value of relative affinity (PD-L1 [4]): 8.4837

The next lines start with results.

binding activity to human PD-L1 (PD-L1 [1])	Molecule	other results
good binding activity	h_Nb9: anti-human PD-L1 nanobody, VHH SEQ ID NO: 20 (protein, h_Nb9 VHH) VHH: DVQLQESGGGLVQPGGSLRLSCASSGSIFGLGVKGWYRQPPGNQREMVAQIISGGRISYADSVKGRFTISRDNAKNTVYLQMNSLKPEDTAVYYCNAWGPGQRNYWGRGTQVTVSS	
good binding activity	h_Nb12: anti-human PD-L1 nanobody, VHH SEQ ID NO: 24 (protein, h_Nb12 VHH) VHH: DVQLQESGGGLVQAGGSLRLSCAASGRTFSSRAMGWFRQAPGKEREFVAAISGSGRNTYYADSVKGRFTISRDNAKNSVNLQMNSLKPEDTAVYYCNAAGGGITIATMTQRTQYDYWGQGTQVTVSS	
good binding activity	h_Nb6: anti-human PD-L1 nanobody, VHH SEQ ID NO: 17 (protein, h_Nb6 VHH) VHH: DVQLQESGGGLAQPGGSLRLSCAASGFTFSSYAMSWARQAPGKGLEWVAGIYRGGSDTYYADSVKGRFTISRDNTKNTLYLQMNSLKPEDTALYYCIQGWGLGYANYDYWGQGTQVTVSS	
good binding activity	h_Nb13: anti-human PD-L1 nanobody, VHH SEQ ID NO: 28 (protein, h_Nb13 VHH) VHH: DVQLQESGGGLVQPGGSLRLSCAASGSIFSINAMGWYRQAPGKSRELVAAITSGGSTNYADSVKGRFTISRDTAKNTVYLLMNSLEPEDTAVYYCNVERRRPPHYLSEYDFDWGQGTQVTVSS	
good binding activity	h_Nb26: anti-human PD-L1 nanobody, VHH SEQ ID NO: 36 (protein, h_Nb26 VHH) VHH: DVQLQESGGGLVQPGGSLRLSCAAPGSIFRINAMGWYRQAPGKQRELVAAITSGGSTNYADSVQGRFTISRDNAKNTVYLQMNSLKPEDTAVYYCNVERRRPPHYYSDYDFDWGQGTQVTVSS	
good binding activity	h_Nb5: anti-human PD-L1 nanobody, VHH SEQ ID NO: 13 (protein, h_Nb5 VHH) VHH: DVQLQESGGGAVQSGESLRLSCAASGRDLMFYDVAWFRQAPGKEREGVSYIRSSGTLTKYADSVKGRFTISRDNDKNTVSLQMNSLNPEDTAKYYCAARLQSATSHSDLREDEFNSWGQGTQVTVSS	
